From patent US12240912 (AARHUS UNIVERSITET, dated 2025) come the findings set out here.

For one experiment, the target named is T1, Mouse C3 (mouse, UniProt P01027 25-1663).
T1 construct: the preparation tested is not described; also called mC3
In words: overview table, + indicates binding; method not given.

Experiment [1] has as its target T2, Human C3 (native C3) (human, UniProt P01024 23-1663).
T2 construct: Purified from outdated human plasma; The entry is given as one stretch, 23-1663; also called hC3; Nat C3
The experiment in a line: surface plasmon resonance. For orientation: In SPR one partner is held on a chip, and binding of the other changes the refractive index at the surface.

The target in the next experiment is C3MA (UniProt P01024 23-1663, limits assumed). The experiment in a line: surface plasmon resonance.
The next experiment concerns the target T3, Human C3b (human, UniProt P01024 23-667; P01024 749-1663).
T3 construct: also called hC3b
The experiment in a line: surface plasmon resonance.

Experiment [2] addresses T4, globular head of human C1q (hC1qGH) (human).
T4 construct: domain: globular head; Made in stably transfected HEK293F cells; also called hC1gGH
The experiment in a line: bio-layer interferometry, IF75 on the sensors, hC1qGH in solution, global fit. In general terms: In BLI a coated tip is dipped into the sample, and binding shifts an interference pattern.

Experiment [3] addresses T5, Human C1q (human, UniProt P02745 23-245; P02746 28-253; P02747 29-245).
T5 construct: Purified human C1q, or C1q in normal human serum, depending on the assay; also called hC1q
The experiment in a line: Plate assay: C1q binding to wells coated with human IgG in the presence of 0.32-1000 ng/ml nanobody, relative fluorescence; blocked ligand: IgG.

The target of experiment [4] is T6, Human C4b (human, UniProt P0C0L4 20-675; P0C0L4 757-1446; P0C0L4 1454-1744).
T6 construct: Both allotypes may be present; Deglycosylated C4b was used for the crystals; also called hC4b
T6 sequence (P0C0L4 20-675 limits assumed, chain 1 of 3): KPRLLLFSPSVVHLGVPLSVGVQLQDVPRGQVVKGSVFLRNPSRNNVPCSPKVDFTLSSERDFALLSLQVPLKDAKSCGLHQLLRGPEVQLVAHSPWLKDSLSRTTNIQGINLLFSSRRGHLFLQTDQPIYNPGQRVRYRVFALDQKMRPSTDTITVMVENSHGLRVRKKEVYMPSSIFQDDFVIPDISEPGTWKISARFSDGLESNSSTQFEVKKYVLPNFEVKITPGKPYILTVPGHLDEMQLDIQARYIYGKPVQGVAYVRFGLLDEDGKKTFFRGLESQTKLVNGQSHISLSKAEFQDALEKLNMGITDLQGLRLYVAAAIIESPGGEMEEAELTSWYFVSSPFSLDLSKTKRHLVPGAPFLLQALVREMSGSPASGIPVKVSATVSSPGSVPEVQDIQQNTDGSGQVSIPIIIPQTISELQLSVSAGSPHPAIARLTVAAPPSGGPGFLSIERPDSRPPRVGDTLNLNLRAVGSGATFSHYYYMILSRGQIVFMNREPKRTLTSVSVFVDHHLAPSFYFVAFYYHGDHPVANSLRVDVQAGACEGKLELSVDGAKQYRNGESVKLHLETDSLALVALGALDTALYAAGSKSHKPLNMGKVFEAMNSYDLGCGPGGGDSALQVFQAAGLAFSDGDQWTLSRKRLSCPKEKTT
T6 sequence (P0C0L4 757-1446 limits assumed, chain 2 of 3): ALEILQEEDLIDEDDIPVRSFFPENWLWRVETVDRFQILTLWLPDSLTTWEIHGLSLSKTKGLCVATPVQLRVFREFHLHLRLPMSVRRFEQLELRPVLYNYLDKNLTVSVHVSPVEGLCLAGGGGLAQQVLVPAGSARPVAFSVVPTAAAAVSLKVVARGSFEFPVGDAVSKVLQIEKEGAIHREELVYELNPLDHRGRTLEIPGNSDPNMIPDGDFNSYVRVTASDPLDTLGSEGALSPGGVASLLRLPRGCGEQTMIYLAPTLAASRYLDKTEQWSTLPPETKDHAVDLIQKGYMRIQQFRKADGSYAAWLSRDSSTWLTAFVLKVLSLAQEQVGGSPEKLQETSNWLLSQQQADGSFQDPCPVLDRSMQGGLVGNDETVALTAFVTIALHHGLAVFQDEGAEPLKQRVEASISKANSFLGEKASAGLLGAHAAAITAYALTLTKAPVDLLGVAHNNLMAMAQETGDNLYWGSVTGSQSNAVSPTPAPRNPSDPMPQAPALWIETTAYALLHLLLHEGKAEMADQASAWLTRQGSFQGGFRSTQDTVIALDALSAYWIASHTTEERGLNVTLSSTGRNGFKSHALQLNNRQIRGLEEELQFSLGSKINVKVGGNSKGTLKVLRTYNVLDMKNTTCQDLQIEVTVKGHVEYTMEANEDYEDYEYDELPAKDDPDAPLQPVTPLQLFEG
T6 sequence (P0C0L4 1454-1744 limits assumed, chain 3 of 3): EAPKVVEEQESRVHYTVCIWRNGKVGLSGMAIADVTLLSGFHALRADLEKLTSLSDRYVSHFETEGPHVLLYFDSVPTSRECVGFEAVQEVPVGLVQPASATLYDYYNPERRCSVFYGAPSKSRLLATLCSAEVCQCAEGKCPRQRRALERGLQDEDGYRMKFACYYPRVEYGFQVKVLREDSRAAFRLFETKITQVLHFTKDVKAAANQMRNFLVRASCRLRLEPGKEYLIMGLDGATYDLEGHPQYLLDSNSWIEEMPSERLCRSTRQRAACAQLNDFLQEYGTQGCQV
In words: overview table, + indicates binding; method not given.

Experiment [5] deals with T7, Human C4 (human, UniProt P0C0L4 20-675; P0C0L4 680-1446; P0C0L4 1454-1744).
T7 construct: also called hC4
T7 sequence (P0C0L4 20-675 limits assumed, chain 1 of 3): as the sequence (P0C0L4 20-675 limits assumed, chain 1 of 3) above
T7 sequence (P0C0L4 680-1446 limits assumed, chain 2 of 3): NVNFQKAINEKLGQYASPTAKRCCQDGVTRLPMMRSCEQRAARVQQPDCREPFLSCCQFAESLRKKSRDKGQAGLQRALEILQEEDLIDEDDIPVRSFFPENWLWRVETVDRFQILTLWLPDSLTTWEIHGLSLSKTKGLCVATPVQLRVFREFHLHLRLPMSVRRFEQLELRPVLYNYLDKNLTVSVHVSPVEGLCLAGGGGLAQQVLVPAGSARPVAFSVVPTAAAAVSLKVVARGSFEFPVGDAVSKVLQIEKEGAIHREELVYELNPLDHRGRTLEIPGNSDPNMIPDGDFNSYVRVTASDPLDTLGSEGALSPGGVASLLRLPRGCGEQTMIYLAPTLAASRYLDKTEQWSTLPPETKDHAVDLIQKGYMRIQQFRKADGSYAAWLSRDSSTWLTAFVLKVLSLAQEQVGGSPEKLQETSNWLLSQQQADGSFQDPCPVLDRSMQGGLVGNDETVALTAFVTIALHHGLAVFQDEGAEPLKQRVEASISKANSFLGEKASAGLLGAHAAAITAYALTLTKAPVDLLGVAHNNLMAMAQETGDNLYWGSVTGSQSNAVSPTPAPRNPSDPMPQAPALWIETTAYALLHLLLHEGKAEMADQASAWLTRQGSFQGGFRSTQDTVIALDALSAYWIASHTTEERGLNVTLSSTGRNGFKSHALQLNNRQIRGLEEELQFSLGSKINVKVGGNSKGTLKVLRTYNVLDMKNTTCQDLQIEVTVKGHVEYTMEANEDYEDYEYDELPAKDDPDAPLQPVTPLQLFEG
T7 sequence (P0C0L4 1454-1744 limits assumed, chain 3 of 3): as the sequence (P0C0L4 1454-1744 limits assumed, chain 3 of 3) above
Described as above.

Experiment [6] deals with T2, Human C3 (native C3). In words: SEC (Superdex 200 increase), 1:1 molar mix.
For experiment [7], the target named is T5, Human C1q. In words: overview table, + indicates binding; method not given.
Experiment [8] deals with T6, Human C4b. In words: SPR (BIAcore T200), biotinylated hC4bNb6 captured on streptavidin, analyte C4b; apparent KD, mean ± S.E.; the table names only the analyte. Here is the method:
(§1) Surface plasmon resonance measurements were conducted using a BIAcore T200 instrument (GE Healthcare). Streptavidin was diluted to 10 μg/mL in 10 mM sodium acetate pH=4.5 and immobilized to 100 RU on the carboxymethylated dextran surface of a CM5 sensor chip (GE Healthcare) using an amine coupling kit. […] The binding measurements were performed in 20 mM HEPES, 150 mM NaCl, 3 mM MgCl2, 0.05% Tween 20 pH=7.5 at 30 μL/min flow rate. At the end of each concentration measurement the surface was regenerated by injection of 100 mM glycine pH=2.7 for three cycles of 10 s contact time. Sensograms were recorded at concentrations 0.1, 5, 10, 25, 50 and 100 nM for C4, while at 0.1, 1, 5, 10, 25 nM for C4b. Fitting of the data was performed for all the measured concentrations simoultaneously, using BIAevaluation software (GE Healthcare). The apparent equilibrium dissociation constants (KD) were calculated from the ratio between the association and dissociation constants.

The target in experiment [9] is T6, Human C4b. The experiment in a line: SPR (BIAcore T200), biotinylated hC4bNb6 captured on streptavidin, analyte C4b; mean ± S.E.; the table names only the analyte. Here is the method:
as §1

In experiment [10] the target is T7, Human C4. In words: SPR (BIAcore T200), biotinylated hC4bNb6 captured on streptavidin, analyte C4; apparent KD, mean ± S.E.; the table names only the analyte. Here is the method: as §1
Experiment [11] concerns the target T7, Human C4. The experiment in a line: SPR (BIAcore T200), biotinylated hC4bNb6 captured on streptavidin, analyte C4; mean ± S.E.; the table names only the analyte. Here is the method: as §1
Another experiment concerns the target T8, Mouse C4b (mouse, UniProt P01029 20-673; P01029 754-1443; P01029 1448-1738).
T8 construct: in C4b the C4a part is cleaved off; The source of the mC4b is not described; also called mC4b
In words: overview table, + indicates binding; method not given.

Experiment [12] deals with T6, Human C4b. The experiment in a line: SEC (Superdex 200 increase) of the proconvertase C4b2 and of its parts.
Experiment [13] has as its target T6, Human C4b. In words: SEC.

T5 sequence (P02745 23-245 limits assumed, chain 1 of 3): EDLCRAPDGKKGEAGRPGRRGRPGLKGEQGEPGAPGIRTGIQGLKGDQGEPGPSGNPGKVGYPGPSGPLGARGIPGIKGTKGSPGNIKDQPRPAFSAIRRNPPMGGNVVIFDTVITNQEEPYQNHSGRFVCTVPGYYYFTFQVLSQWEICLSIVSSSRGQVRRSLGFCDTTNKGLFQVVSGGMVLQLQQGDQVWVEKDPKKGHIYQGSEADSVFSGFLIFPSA
T5 sequence (P02746 28-253 limits assumed, chain 2 of 3): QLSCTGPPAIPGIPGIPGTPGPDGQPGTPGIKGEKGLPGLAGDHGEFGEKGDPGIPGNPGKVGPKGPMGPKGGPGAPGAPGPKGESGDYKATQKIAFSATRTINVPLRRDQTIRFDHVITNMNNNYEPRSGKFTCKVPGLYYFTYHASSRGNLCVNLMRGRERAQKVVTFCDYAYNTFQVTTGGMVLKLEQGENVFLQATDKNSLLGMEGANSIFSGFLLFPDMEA
T5 sequence (P02747 29-245 limits assumed, chain 3 of 3): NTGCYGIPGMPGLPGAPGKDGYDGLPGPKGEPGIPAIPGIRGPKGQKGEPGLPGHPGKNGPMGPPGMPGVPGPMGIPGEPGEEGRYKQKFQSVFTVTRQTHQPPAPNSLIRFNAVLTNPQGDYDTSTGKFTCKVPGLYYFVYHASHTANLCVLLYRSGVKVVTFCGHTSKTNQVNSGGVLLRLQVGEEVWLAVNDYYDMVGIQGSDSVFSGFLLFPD
T8 sequence (P01029 20-673 limits assumed, chain 1 of 3): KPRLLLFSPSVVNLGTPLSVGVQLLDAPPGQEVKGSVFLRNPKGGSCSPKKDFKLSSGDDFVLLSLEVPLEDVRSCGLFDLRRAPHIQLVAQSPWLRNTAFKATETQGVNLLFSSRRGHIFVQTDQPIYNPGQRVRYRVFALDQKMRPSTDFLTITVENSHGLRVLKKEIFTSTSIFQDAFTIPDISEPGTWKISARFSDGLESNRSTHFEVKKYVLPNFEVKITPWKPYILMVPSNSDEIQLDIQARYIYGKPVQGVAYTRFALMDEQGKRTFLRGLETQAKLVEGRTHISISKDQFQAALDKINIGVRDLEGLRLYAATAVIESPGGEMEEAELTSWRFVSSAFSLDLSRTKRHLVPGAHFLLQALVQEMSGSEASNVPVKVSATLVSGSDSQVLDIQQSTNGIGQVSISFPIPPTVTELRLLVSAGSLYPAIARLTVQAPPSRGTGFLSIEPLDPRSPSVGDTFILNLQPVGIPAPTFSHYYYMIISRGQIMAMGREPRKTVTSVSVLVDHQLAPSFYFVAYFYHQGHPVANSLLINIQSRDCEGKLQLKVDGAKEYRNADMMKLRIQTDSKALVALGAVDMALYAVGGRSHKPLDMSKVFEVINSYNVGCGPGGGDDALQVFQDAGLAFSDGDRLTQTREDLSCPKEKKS
T8 sequence (P01029 754-1443 limits assumed, chain 2 of 3): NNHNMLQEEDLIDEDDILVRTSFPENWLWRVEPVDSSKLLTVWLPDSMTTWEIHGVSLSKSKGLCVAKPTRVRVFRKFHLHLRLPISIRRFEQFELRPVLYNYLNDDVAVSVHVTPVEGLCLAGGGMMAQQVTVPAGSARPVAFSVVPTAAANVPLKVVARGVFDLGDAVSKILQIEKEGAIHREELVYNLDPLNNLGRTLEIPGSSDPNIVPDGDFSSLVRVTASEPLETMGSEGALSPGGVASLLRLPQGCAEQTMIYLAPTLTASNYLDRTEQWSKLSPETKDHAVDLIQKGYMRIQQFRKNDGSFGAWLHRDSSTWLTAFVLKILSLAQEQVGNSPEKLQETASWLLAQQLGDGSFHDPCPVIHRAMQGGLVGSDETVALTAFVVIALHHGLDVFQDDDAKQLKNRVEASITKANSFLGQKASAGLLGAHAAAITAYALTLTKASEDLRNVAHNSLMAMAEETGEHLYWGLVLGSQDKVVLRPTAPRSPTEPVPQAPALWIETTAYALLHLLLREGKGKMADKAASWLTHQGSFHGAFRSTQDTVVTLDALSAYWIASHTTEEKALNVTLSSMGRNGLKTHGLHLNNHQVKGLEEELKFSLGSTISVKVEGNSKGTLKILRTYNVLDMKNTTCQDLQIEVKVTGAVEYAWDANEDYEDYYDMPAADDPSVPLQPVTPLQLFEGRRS
T8 sequence (P01029 1448-1738 limits assumed, chain 3 of 3): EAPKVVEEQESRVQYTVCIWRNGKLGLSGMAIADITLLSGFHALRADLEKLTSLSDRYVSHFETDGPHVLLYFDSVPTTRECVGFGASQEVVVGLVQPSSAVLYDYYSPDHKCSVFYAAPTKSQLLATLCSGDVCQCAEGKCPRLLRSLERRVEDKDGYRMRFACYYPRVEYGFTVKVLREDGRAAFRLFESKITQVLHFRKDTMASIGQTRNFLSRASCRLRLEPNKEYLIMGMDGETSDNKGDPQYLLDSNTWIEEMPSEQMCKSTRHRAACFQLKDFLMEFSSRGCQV

B1: DI62 (VHH)
VHH: QVQLVESGGGLVQAGGSLRLSCAASGRTFSDYTMGWFRQAPGKEREFVAGLSTGGSFTRYAASVEGRFTISRDNAKTTVYLQMNNLQPEDTAVYYCAADFTPYGTNWSRFREARDHYWGQGTQVTVSS
notes: Llama nanobody made in E. coli and purified on His-Trap
One may read the koff as a measure of how fast the partners let go of each other. A lower koff goes with a long-lived complex. For orientation: kon means the rate constant with which the complex forms. A lower kon goes with slow association. As to B1, the binding result in the experiment with Mouse C3 is “binds”. In the experiment with Human C3 (native C3) [1], this molecule registered a Kd of 5.5 nM, a koff of 0.00057 s⁻¹ and a kon of 100000 M⁻¹ s⁻¹. Moreover, in the experiment with C3MA, the Kd worked out at 3.2 nM, the koff came out at 0.00026 s⁻¹ and the kon amounted to 80000 M⁻¹ s⁻¹. In the experiment with Human C3b, this molecule registered a Kd of 4.7 nM, a koff of 0.00029 s⁻¹ and a kon of 62000 M⁻¹ s⁻¹.

B2: IF75 (VHH)
VHH: QVQLVETGGGLVQAGGSLRLSCAASGRTFNNDVMAWFRQAPGTEREFVALITAGGGTHYADSVKGRFVISRDNDKNMAYLQMNSLKSEDTAIYYCGADENPPGWPSRWSSAYDYWGQGTQVTVSS
notes: also called 59IF75
Consider B2, for which the Kd in experiment [2] came out at 0.5 nM. The binding result in the experiment with Human C1q [3] is “binds”.

B3: hC4Nb5 (VHH)
VHH: QVQLVETGGGLVQPGGSLRLSCAASGRTFNKNPMAWFRQPPGQERDLVAAISWSGDSTNYANSVQGRFTISRNNAQRTVSLSMNNLKPEDTAVYYCAAVGRTDYSPNSLALTAQNYDYWGQGTQVTVSS
notes: also called hC4bNb5
As for B3, the binding result in the experiment with Human C4b [4] and in the experiment with Human C4 [5] was “binds” in each case.

B4: EWE-hC3Nb1 (VHH)
VHH: QVQLVETGGGLVQAGGSLRLSCAASGSIFSINAMGWFRQAPGKEREFVATINRSGGRTYYADSVKGRFTISRDNGKNMVYLQMHSLKPEDTAIYYCAAGTGWSPQTDNEYNYWGQGTQVTVSS
notes: Biotinylated for BLI; also called EWE-hC3bNb1
Take B4: the binding result in the experiment with Human C3 (native C3) [6] was “no binding”.

B5: IH39 (VHH)
VHH: QVQLVESGGGLVQAGGSLRLSCVAYGVASVTTVMGWFRQSPGKEREFVAAIGPSGGTHYGDSAKGRFTISRDNAKNTVYLQMNSLKPEDTAVYDCAADLRGGGMWASSGRYEYWGQGTQVTVSS
As for B5, in the experiment with Human C1q [7], the binding result was “binds”.

B6: hC4Nb4 (VHH)
VHH: QVQLVETGGGLVEAGGSLRISCAASGRYAMGWFRQAPGNERDFVAAISRSGDSANYADTAWGRFTISRDNAQNTMTLQMNSLKPEDTAVYYCAAKAGLYSLNSLFLRSQEYTYWGQGTQVTVSS
notes: also called hC4bNb4
Consider B6, for which the binding result in the experiment with Human C4b [4] and in the experiment with Human C4 [5] was “binds” throughout.

B7: IH35 (VHH)
VHH: QVQLVETGGGVAQAGGSLRLSCAASGFSFDDYAIGWLRQAPGKEREGVSCISAGDGSPQYADSVKGRFTISSDNAKNTVYLQMNSLKPEDTAVYYCAVSRWSNCAWDYYGMDPWGKGTLVTVSS
As for B7, in the experiment with Human C1q [7], the binding result is “binds”.

B8: IH33 (VHH)
VHH: QVQLVETGGGLVQTGGSLRLSCAASGSTDSIAAIIWYRQTPENEREFVAGITSGVNTNYAAPVKGRFTISRDNAKNTVYLQMNSLKPEDTGVYYCKAAVVMGPSTTDYWGQGTQVTVSS
Consider B8, for which the binding result with Human C1q [3] is given as “binds”.

B9: hC4bNb6 (VHH)
VHH: QVQLVETGGGVVRAGGSLRLSCAASGRTLGRYSMAWFRQAPGKERQFVAAINWSGGSTYYPDFAKDRFTISRDSAKNMVYLQMNSLKPEDTAVYYCAAGGMDIEITRANEYDYWGQGTQVTVSS
notes: Biotinylated and captured on streptavidin for SPR
Take B9: the Kd with Human C4b [8] turned out to be 0.12 nM; with Human C4 [10], 0.46 nM. The koff with Human C4b [9] was found to be 6.1e-05 s⁻¹; with Human C4 [11] it was 5.7e-05 s⁻¹. Besides, the kon is 530000 M⁻¹ s⁻¹ with Human C4b [9] and 123000 M⁻¹ s⁻¹ with Human C4 [11].

B10: EA57 (VHH)
VHH: QVQLVESGGGLVQPGGSLRLSCAASGFTLNQYAIGWFRQAPGKEREGVSCISNSDGGLYYADSVKGRFTISRDNAKNTVYLQMNSLKPEDTAVYYCATDPGGPTMYGSRWCDSRLFYSWGQGTQVTVSS
Take B10: the binding result in the experiment with Human C1q [3] is on record as “binds”.

B11: pNSL270 (VHH)
VHH: QVQLVESGGGLVQAGGSLRLSCVASASTLDIYTYAMAWFRQAPGKRREFVAAISRNGYSTYYADSVKGRFTISKLNAKNTLYLQMNSLEPEDTAAYYCAADRTTEVVDREDDYGYWGQGTQVTVSS
On to B11, for which the binding result with Mouse C4b is reported as “binds”.

B12: IH31 (VHH)
VHH: QVQLVESGGGLVQAGGSLRLSCAASGRTSSDHITAWFRQAPGKEREFVASINWSGSRAYYADSDKRRFTISRDNAKNTVSLQTNSLKPEDTAVYYCAVKFADISDAYYHHQTDYDYWGQGTQVTVSS
Take B12: the binding result in the experiment with Human C1q [3] is “binds”.

B13: C2 (Cys261Ala, Gln263Lys) (enzyme, UniProt P06681 21-752, looked up)
chain: APSCPQNVNISGGTFTLSHGWAPGSLLTYSCPQGLYPSPASRLCKSSGQWQTPGATRSLSKAVCKPVRCPAPVSFENGIYTPRLGSYPVGGNVSFECEDGFILRGSPVRQCRPNGMWDGETAVCDNGAGHCPNPGISLGAVRTGFRFGHGDKVRYRCSSNLVLTGSSERECQGNGVWSGTEPICRQPYSYDFPEDVAPALGTSFSHMLGATNPTQKTKESLGRKIQIQRSGHLNLYLLLDASKSVSENDFLIFKESASLMVDRIFSFEINVSVAIITFASEPKVLMSVLNDNSRDMTEVISSLENANYKDHENGTGTNTYAALNSVYLMMNNQMRLLGMETMAWQEIRHAIILLTDGKSNMGGSPKTAVDHIREILNINQKRNDYLDIYAIGVGKLDVDWRELNELGSKKDGERHAFILQDTKALHQVFEHMLDVSKLTDTICGVGNMSANASDQERTPWHVTIKPKSQETCRGALISDQWVLTAAHCFRDGNDHSLWRVNVGDPKSQWGKEFLIEKAVISPGFDVFAKKNQGILEFYGDDIALLKLAQKVKMSTHARPICLPCTMEANLALRRPQGSTCRDHENELLNKQSVPAHFVALNGSKLNINLKMGVEWTSCAEVVSQEKTMFPNLTDVREVVTDQFLCSGTQEDESPCKGESGGAVFLERRFRFFQVGLVSWGLYNPCLGSADKNSRKRAPRSKVPPPRDFHINLFRMQPWLRQHLGDVLNFLPL
For B13, the binding result in the experiment with Human C4b [12] was “binds”.

B14: hC4Nb8 (VHH)
VHH: QVQLVESGGGLVQTGDSLRLSCAASGRTFSRYAMGWFRQAPGKERELVAAINWSGGSTYYADFAKGRFTISRDNAKNMLYLRMSSLKPEDTAVYYCAAGGPEVEITRANEYDYWGQGTQVTVSS
notes: also called hC4bNb8
Consider B14, for which the binding result with Human C4b [13] is on record as “binds”.
